In PMC8225759, “A GH89 human α-N-acetylglucosaminidase (hNAGLU) homologue from gut microbe Bacteroides thetaiotaomicron capable of hydrolyzing heparosan oligosaccharides” (AMB Express, 2021):

Key:
[1] = substrate: CC(=O)N[C@H]1[C@@H](Oc2ccc3c(C)cc(=O)oc3c2)O[C@H](CO)[C@@H](O)[C@@H]1O; assay: purified protein; conditions: pH 5.0; 30.0 °C
[2] = substrate: CC(=O)N[C@H]1[C@@H](O[C@H]2[C@H](O)[C@@H](O)[C@H](OCCCNC(=O)OCC3c4ccccc4-c4ccccc43)O[C@@H]2C(=O)O)O[C@H](CO)[C@@H](O)[C@@H]1O; assay: purified protein; conditions: pH 5.0; 30.0 °C

B1: (Bacteroides thetaiotaomicron VPI-5482) (protein)
chain: TGPPVLKEMCQRLFPRHAQSFLFELLTDSIDTDRFILESSQGKIRIKGNNRNSLAAGLNHYLKNYCHTHVSWYASETVEMPDVLPEIPQPVYIRSKCDNRFFLNYCTFGYTMPYWKWQDWERLIDWMALNGVTMPLAITGQESIWYKVWTDMGLSDEQVRSYFTGPAHLPWHRMSNVDFWQSPLPQSWLKDQEELQKRILEREREFDMTPVLPAFAGHVPAELKTIYPNAKIYQMSQWGGFDEKYRSHFIDPMDSLYSIIQRRFLEEQTKVYGTDHIYGIDPFNEVDSPDWSEDFLANVSSKIYESIHQVDSAAQWLQMTWMFFYDKKKWTQPRIRSFLKAVPDNKLILLDYYCDHTEIWRNTEKYYGNPYIWCYLGNFGGNTMIAGNLNDIDFKIKRLFKEGGDNVYGLGATLEGFDVNPLMYEFVFDQAWDYPVTTDQWITNWSMCRGGNQDANIIKAWRALHQKIYTEHATCGQSVLMNARPRLTGTKSWNTNPGIHYANNDLWQIWKELLKARNINNSDFRFDVINIGRQVLGNLFSEYRDQFTACYNRKDTTGMREWSTRMDNLLLDVDRLLSCDATLSIGKWLQDARNCGATVSEKDYYEENARCILTVWGQQDTQLNDYANRGWGGLTRSFYRERWKRFTDGVIAAVSEDKPFDEDKFHQDITQFEYNWTLQKDSFPIVSEEDPIQIADSLILKYDTYFTKAQ
Km [1]: (4.6 ± 0.4) × 10^−3 mM
kcat [1]: 3.68 ± 0.07 s⁻¹
kcat/Km [1]: 800000 M⁻¹ s⁻¹
Km [2]: 2190 ± 160 µM
kcat [2]: 3.57 ± 0.09 s⁻¹
kcat/Km [2]: 1630 M⁻¹ s⁻¹
